The values below come from US20220073922.

Some results are limits rather than exact numbers.

For series [1], the target named is T1, Angiopoietin-2 (Ang2) (Homo sapiens) (UniProt O15123).
T1 sequence: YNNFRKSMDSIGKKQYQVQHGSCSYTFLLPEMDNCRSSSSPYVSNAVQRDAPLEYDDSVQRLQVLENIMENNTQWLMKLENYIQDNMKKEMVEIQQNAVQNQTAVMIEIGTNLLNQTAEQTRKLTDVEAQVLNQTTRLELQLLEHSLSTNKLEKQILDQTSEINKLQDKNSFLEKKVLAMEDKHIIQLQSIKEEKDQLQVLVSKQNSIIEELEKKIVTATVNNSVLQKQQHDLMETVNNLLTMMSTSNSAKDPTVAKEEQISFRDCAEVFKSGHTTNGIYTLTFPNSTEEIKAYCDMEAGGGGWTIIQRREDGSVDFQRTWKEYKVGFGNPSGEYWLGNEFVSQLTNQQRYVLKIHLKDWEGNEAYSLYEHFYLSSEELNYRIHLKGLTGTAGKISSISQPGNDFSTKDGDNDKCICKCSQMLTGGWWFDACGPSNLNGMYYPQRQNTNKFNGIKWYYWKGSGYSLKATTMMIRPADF
Nature of the series: flow. To be noted: 2'-F all nucleotides.

For series [2], the target named is T2, VEGF-121 (VEGFA isoform 121) (Homo sapiens) (UniProt P15692).
T2 sequence: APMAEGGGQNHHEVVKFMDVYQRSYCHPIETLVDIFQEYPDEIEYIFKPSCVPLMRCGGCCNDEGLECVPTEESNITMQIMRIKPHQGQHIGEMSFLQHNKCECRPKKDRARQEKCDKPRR
As to the kind of experiment: flow. To be noted: 2'-F all nucleotides.

Series [3] concerns T3, VEGF (isoform not given) (Homo sapiens), P15692-9.
T3 sequence: T2 sequence
As to the kind of experiment: competition. To be noted: 2'-F all positions; blocks VEGF-VEGFR2; isoform not stated.

Setting [4] is: 6 hexaethylene glycol linkers between aptamers [2'-F at all nucleotides 1-86, 6 hexaethylene glycol linkers (HHHHHH) between 38 and 39 left out].
Where [5] appears, read: 4 hexaethylene glycol linkers between aptamers [2'-F at all nucleotides 1-86, 4 hexaethylene glycol linkers (HHHH) between 38 and 39 left out].
[6] abbreviates: 3 hexaethylene glycol linkers between aptamers [2'-F at all nucleotides 1-86, 3 hexaethylene glycol linkers (HHH) between 38 and 39 left out].
[7] abbreviates: 2 hexaethylene glycol linkers between aptamers [2'-F at all nucleotides 1-86, 2 hexaethylene glycol linkers (HH) between 38 and 39 left out].
The mark [8] stands for this setting: 5 hexaethylene glycol linkers between aptamers [2'-F at all nucleotides 1-86, 5 hexaethylene glycol linkers (HHHHH) between 38 and 39 left out].
[9] abbreviates: 1 hexaethylene glycol linker between aptamers [2'-F at all nucleotides 1-86, 1 hexaethylene glycol linker (H) between 38 and 39 left out].

Regarding “CGCAUAGAUAAGCCAACAAACAUUCUCUGUUAGUAUUUUCUGCG [AMS0525.8]”, the dissociation constant Kd in series [1] (one internal hexaethylene glycol linker (H) [2'-F at 1-44, hexaethylene glycol linker H (left out) between C21 and A22], PBSMCT, 37 C) stood at 0.085 nM.
On to “CGCUAGAUGGCUAACACUAUUGUGGAGAUGCACUAGCGCGCAUAGAUAAGCCAACAAACGUACAUUCUCUGUUAGUAUUUUCUGCG [AMSB103.6]”, for which the values for the Kd in series [1] (setting [4]) and in series [2] (setting [4]) were 0.034 nM and 0.039 nM, respectively.
As for “CGCUAGAUGGCUAACACUAUUGUGGAGAUGCACUAGCGCGCAUAGAUAAGCCAACAAACGUACAUUCUCUGUUAGUAUUUUCUGCG [AMSB103.4]”, the results for the Kd in series [1] (setting [5]) and in series [2] (setting [5]) were 0.032 nM and 0.041 nM, respectively.
In the case of “CGCUAGAUGGCUAACACUAUUGUGGAGAUGCACUAGCGCGCAUAGAUAAGCCAACAAACGUACAUUCUCUGUUAGUAUUUUCUGCG [AMSB103.3]”, the results for the Kd in series [1] (setting [6]) and in series [2] (setting [6]) were 0.031 nM and 0.036 nM, respectively.
On to “CGCUAGAUGGCUAACACUAUUGUGGAGAUGCACUAGCGCGCAUAGAUAAGCCAACAAACGUACAUUCUCUGUUAGUAUUUUCUGCG [AMSB103]”, for which, in series [3], the IC50 is less than 0.1 nM.
Turning to “CGCUAGAUGGCUAACACUAUUGUGGAGAUGCACUAGCGCGCAUAGAUAAGCCAACAAACGUACAUUCUCUGUUAGUAUUUUCUGCG [AMSB103.2]”, the Kd worked out at 0.034 nM in series [1] (setting [7]) and 0.038 nM in series [2] (setting [7]).
For the sequence “CGCUAGAUGGCUAACACUAUUGUGGAGAUGCACUAGCGCGCAUAGAUAAGCCAACAAACGUACAUUCUCUGUUAGUAUUUUCUGCG [AMSB103.5]”, the Kd in series [1] (setting [8]) was determined as 0.027 nM; in series [2] (setting [8]), 0.038 nM.
Regarding “CGCAUAGAUAAGCCAACAAAUUCUCUGUUAGUAUUUUCUGCG [AMS0525.7]”, the Kd in series [1] (one internal hexaethylene glycol linker (H) [2'-F at 1-42, hexaethylene glycol linker H (left out) between A20 and U21], PBSMCT, 37 C) worked out at 0.093 nM.
In the case of “CGCUAGAUGGCUAACACUAUUGUGGAGAUGCACUAGCGCGCAUAGAUAAGCCAACAAACGUACAUUCUCUGUUAGUAUUUUCUGCG [AMSB103.1]”, the Kd in series [1] (setting [9]) was determined as 0.026 nM; in series [2] (setting [9]), 0.041 nM.

What is called Kd is the constant that tells how readily two partners part at equilibrium. High values mean weaker binding, low ones tighter binding. What is called IC50 is the point on the concentration scale where inhibition reaches its midpoint. A lower IC50 goes with greater potency in that assay.
